Source: US20260217833A1 (APTEVO RESEARCH AND DEVELOPMENT, published 2026)
Blank lines part the entries; values can stand above or below the binder they belong to.

Assays:
human CD40 full-length [1] = molecular target: T1, human CD40 full-length (human, UniProt P25942 21-277); assay: binding to cells expressing full length human- or cyno-CD40, unpurified small-scale material
T1 construct: Also used for CD40 of Daudi cells, of CD40-expressing HEK293 cells and of the BPS CD40/NFkB HEK293 reporter cells where the row says so; also called CD4001012; CHOK1SV/CD40

human CD40 full-length [2] = molecular target: T1, human CD40 full-length; assay: on-cell binding
human CD40 full-length [3] = molecular target: T1, human CD40 full-length; assay: flow cytometry, CHOK1SV/human CD40 cells
Human PD-L1 full-length = molecular target: T2, Human PD-L1 full-length (human, UniProt Q9NZQ7 19-290); assay: flow cytometry, CHOK1SV/human PD-L1 cells
T2 construct: also called PDL01021; CHOK1SV/huPDL1

human CD40 full-length [4] = molecular target: T1, human CD40 full-length; assay: flow cytometry, Daudi cells (endogenous CD40)
Cynomolgus CHOK1SV/CD40 = molecular target: T3, Cynomolgus CHOK1SV/CD40; assay: flow cytometry, CHOK1SV/cynomolgus CD40 cells
T3 construct: also called Cyno CD40 full-length; CD4001013
T3 receptor chain: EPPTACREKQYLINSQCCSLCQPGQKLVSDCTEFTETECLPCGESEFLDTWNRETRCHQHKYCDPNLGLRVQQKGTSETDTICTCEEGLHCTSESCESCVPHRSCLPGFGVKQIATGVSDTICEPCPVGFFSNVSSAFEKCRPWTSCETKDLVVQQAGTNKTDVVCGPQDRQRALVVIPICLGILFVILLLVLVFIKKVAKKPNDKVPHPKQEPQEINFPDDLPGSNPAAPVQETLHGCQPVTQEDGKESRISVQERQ

human CD40 ECD- HAC tag = molecular target: T4, human CD40 ECD- HAC tag (human); assay: SPR (Biacore T200), bispecific captured on the chip, monovalent CD40 ECD injected
T4 construct: also called CD4001006; recombinant monomeric human CD40 ectodomain (ECD)

T2 sequence (Q9NZQ7 19-290): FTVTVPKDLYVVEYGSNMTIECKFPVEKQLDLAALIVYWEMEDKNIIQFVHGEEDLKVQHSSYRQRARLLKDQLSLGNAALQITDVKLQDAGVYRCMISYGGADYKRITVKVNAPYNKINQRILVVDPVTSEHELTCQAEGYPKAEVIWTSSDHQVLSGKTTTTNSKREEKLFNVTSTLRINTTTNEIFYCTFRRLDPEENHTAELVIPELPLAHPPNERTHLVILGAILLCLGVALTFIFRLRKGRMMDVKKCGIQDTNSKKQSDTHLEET

binding result (human CD40 full-length [1]): binds
B1: CD4001090 (Fc fusion)
chain: EVVMTQSPDFQSVTPKEKVTITCRSSQSLVHYNGYTYLHWYQQKPDQSPKLLIYKVSNRFSGVPSRFSGSGSGTDFTLTINSLEAEDAAAYFCSQTTHVPLTFGPGTKVDIKGGGGSGGGGSGGGGSGGGGSEVQLVESGGGVVQPGRSLRLSCAASGFTFSSYAMSWVRQAPGKGLEWVASISSAGTYIYYADSVKGRFTISRDNSKNTLYLQMNGLRAEDTAVYYCARHGNGYDPLWYFDVWGQGTLVTVSS
notes: As m65; not shown: wildtype IgG1 Fc region

binding result (human CD40 full-length [1]): binds
B2: CD4001099 (Fc fusion)
chain: EVVMTQSPDFQSVTPKEKVTITCRSSQSLVHYNGYTYLHWYQQKPDQSPKLLIYKVSNRFSGVPSRFSGSGSGTDFTLTINSLEAEDAAAYFCSQTTHVPLTFGPGTKVDIKGGGGSGGGGSGGGGSGGGGSEVQLVESGGGLEQPGGSLRLSCAASGFTFSSYAMSWVRQAPGKGLEWVASISSAGTYIYYADSVKGRFTISRDNSKNTLYLQMNSLRAEDTAVYYCARHGNGYDPLWYFDVWGQGTTVTVSS
notes: as for B1

binding result (human CD40 full-length [1]): binds
B3: CD4001088 (Fc fusion)
chain: EVVMTQSPDFQSVTPKEKVTITCRSSQSLVHYNGYTYLHWYQQKPDQSPKLLIYKVSNRFSGVPSRFSGSGSGTDFTLTINSLEAEDAAAYFCSQTTHVPLTFGPGTKVDIKGGGGSGGGGSGGGGSGGGGSEVQLVESGGGLVQPGRSLRLSCAASGFTFSSYAMSWVRQAPGKGLEWVASISSAGTYIYYADSVQGRFTISRDNGKNSLYLQMNSLRAEDTALYYCARHGNGYDPLWYFDVWGQGTMVTVSS
notes: as for B1

binding result (human CD40 full-length [2]): no binding
B4: CD4001152 (Fc fusion)
scFv: QIVMTQSPDSLALSLGERATMNCKSSQSLLFSVNQKNYLAWYQQKPGQAPRLLIYWASTRESGVPDRFSGSGSGTDFTLTISRLEPEDVATYYCQHYYSYPWTFGAGTKLEIKGGGGSGGGGSGGGGSGGGGSQVQLVQSGAEVKKPGASVKVSCKASGYTFSTSWIEWVRQAPGQGLEWIGEILPGSGSTNYAQKFQGRATFTADTSTSTAYMELSSLRSEDTAVYYCARGDDGSYVRWYFDVWGQGTTVTVSS
notes: Humanized 1D5 scFv variant, as told of in Fc-scFv format; not shown: the human Fc and any Fc-scFv linker; neither the Fc entry nor the scFv position (N- or C-terminal) is fixed for this construct

binding result (human CD40 full-length [3]): binds
B5: CD4001103 (Fc fusion)
scFv: QIVMTQSPGTLSLSPGERATMTCKSSQSLLFSVNQKNYLAWYQQKPGQAPRLLIYWASTRESGVPDRFSGSGSGTDFTLTISRLEPEDAATYYCQHYYSYPWTFGAGTKLEIKGGGGSGGGGSGGGGSGGGGSQVKLVQSGAEVKKPGASVKVSCKASGYTFSTSWIEWIRQAPGQGLEWIGEILPGSGSTNYAQKFQGRATFTADTSTSTAYMELSSLRSEDTAVYYCARGDDGSYVRWYFDVWGQGTTVTVSS
notes: As m82; not shown: the human Fc (hinge-CH2-CH3) of the scFv-hFc format

binding result (human CD40 full-length [2]): no binding
B6: CD4001163 (Fc fusion)
scFv: QIVMTQSPDSLAVSLGERATINCKSSQSLLFSVNQKNYLAWYQQKPGQAPRLLIYWASTRESGVPDRFSGSGSGTDFTLTISRLEPEDVATYYCQHYYSYPWTFGAGTKVEIKGGGGSGGGGSGGGGSGGGGSQVQLVQSGAEVKKPGASVKVSCKASGYTFSTSWMEWVRQAPGQGLEWMGEILPGSGSTNYAQKFQGRVTMTRDTSTSTVYMELSSLRSEDTAVYYCARGDDGSYVRWYFDVWGQGTTVTVSS
notes: As m85; not shown: Fc (hinge-CH2-CH3) and any Fc-scFv linker of the tested fusion

binding result (Human PD-L1 full-length): binds
binding result (human CD40 full-length [4]): binds
binding result (Cynomolgus CHOK1SV/CD40): binds
Kd (human CD40 ECD- HAC tag): 81 nM
koff (human CD40 ECD- HAC tag): 0.00059 s⁻¹
kon (human CD40 ECD- HAC tag): 7300 M⁻¹ s⁻¹
B7: PC401144 (bispecific antibody)
chain: DIQMTQSPSSLSASVGDRVTITCRASQDINKFLSWYQQKPGKAPKLLIHYTSSLQSGVPSRFSGSGSGTDFTLTISSLQPEDFATYYCLQYDNLYTFGQGTKLEIKGGGGSGGGGSGGGGSGGGGSEVQLVESGGGLVQPGGSLRLSCAASGFTFSDYGMAWVRQAPGKGLEWVSFITSLAYIIYYADSVKGRFTISRDNAKNSLYLQMNSLRAEDTAVYYCARNYGSSPYYFDYWGQGTLVTVSSEPKSSDKTHTCPPCPAPPAAAPSVFLFPPKPKDTLMISRTPEVTCVVVDVSHEDPEVKFNWYVDGVEVHNAKTKPREEQYNSTYRVVSVLTVLHQDWLNGKEYKCAVSNKALPAPIEKTISKAKGQPREPQVYTLPPSRDELTKNQVSLTCLVKGFYPSDIAVEWESNGQPENNYKTTPPVLDSDGSFFLYSKLTVDKSRWQQGNVFSCSVMHEALHNHYTQKSLSLSPGGGGSPSDIQMTQSPSSVSASVGDRVTITCRASQSLTFSVNQKNYLAWYQQKPGKAPKLLIYWASSLQSGVPSRFSGSGSGTDFTLTISSLQPEDFATYYCQHYYSYPWTFGCGTKVEIKGGGGSGGGGSGGGGSGGGGSQVQLVQSGAEVKKPGSSVKVSCKASGYTFSTSWIEWIRQAPGQCLEWMGSILPGSGSTNYNQKFQGRVTITADTSTSTAYMELSSLRSEDTAVYYCARGDDGSYNRWYFDHWGQGTLVTVSS

binding result (Human PD-L1 full-length): binds
binding result (human CD40 full-length [4]): binds
binding result (Cynomolgus CHOK1SV/CD40): binds
Kd (human CD40 ECD- HAC tag): 81 nM
koff (human CD40 ECD- HAC tag): 0.00061 s⁻¹
kon (human CD40 ECD- HAC tag): 7600 M⁻¹ s⁻¹
B8: PC401145 (bispecific antibody)
chain: DIQMTQSPSSLSASVGDRVTITCRASQDINKFLSWYQQKPGKAPKLLIHYTSSLQSGVPSRFSGSGSGTDFTLTISSLQPEDFATYYCLQYDNLYTFGQGTKLEIKGGGGSGGGGSGGGGSGGGGSEVQLVESGGGLVQPGGSLRLSCAASGFTFSDYGMAWVRQAPGKGLEWVSFITSLAYIIYYADSVKGRFTISRDNAKNSLYLQMNSLRAEDTAVYYCARNYGSSPYYFDYWGQGTLVTVSSEPKSSDKTHTCPPCPAPPAAAPSVFLFPPKPKDTLMISRTPEVTCVVVDVSHEDPEVKFNWYVDGVEVHNAKTKPREEQYNSTYRVVSVLTVLHQDWLNGKEYKCAVSNKALPAPIEKTISKAKGQPREPQVYTLPPSRDELTKNQVSLTCLVKGFYPSDIAVEWESNGQPENNYKTTPPVLDSDGSFFLYSKLTVDKSRWQQGNVFSCSVMHEALHNHYTQKSLSLSPGGGGSPSDIQMTQSPSSVSASVGDRVTITCRASQSLLFSVNQKNYLAWYQQKPGKAPKLLIYWASSLQSGVPSRFSGSGSGTDFTLTISSLQPEDFATYYCQHYYSYPWTFGCGTKVEIKGGGGSGGGGSGGGGSGGGGSQVQLVQSGAEVKKPGSSVKVSCKASGYTFSTSWIEWIRQAPGQCLEWMGSILPGSGSTNYNQKFQGRVTITADTSTSTAYMELSSLRSEDTAVYYCARGDDGSYNRWYFDHWGQGTLVTVSS
